Reference: PMC2928128 (Human Molecular Genetics, 2010)

T1: harmonin-a Nter-PDZ1-PDZ2 fragment (residues 1-299) (UniProt Q9ES64 1-299)
T1 sequence (looked up): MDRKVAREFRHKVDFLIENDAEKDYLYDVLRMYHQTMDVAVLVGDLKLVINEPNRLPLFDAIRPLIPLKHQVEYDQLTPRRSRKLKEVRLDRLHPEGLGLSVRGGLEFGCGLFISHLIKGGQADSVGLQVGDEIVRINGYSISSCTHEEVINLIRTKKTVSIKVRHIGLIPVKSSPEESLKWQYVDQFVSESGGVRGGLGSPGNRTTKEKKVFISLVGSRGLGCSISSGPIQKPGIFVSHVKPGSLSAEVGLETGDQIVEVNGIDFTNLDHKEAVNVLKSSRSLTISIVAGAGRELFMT

T2: harmonin-a Nter-PDZ1 fragment (residues 1-203) (UniProt Q9ES64 1-203)
T2 sequence (looked up): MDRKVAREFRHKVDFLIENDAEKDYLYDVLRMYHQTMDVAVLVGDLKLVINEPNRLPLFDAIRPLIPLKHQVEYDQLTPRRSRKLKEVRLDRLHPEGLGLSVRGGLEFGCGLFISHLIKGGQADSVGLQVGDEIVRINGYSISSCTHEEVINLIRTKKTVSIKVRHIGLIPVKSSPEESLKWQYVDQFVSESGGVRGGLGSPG

T3: harmonin-a Nter domain (residues 1-79) (UniProt Q9ES64 1-79)
T3 sequence (looked up): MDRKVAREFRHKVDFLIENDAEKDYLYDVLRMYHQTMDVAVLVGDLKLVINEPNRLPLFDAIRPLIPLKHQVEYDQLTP

B1: GST-CDH23Δexon68 (cytoplasmic region of cadherin-23 lacking the exon68-encoded sequence, residues 847-1079) (domain or fragment)
chain: NWYYRTVHKRKLKAIVAGSAGNRGFIDIMDMPNTNKYSFDGANPVWLDPFCRNLELAAQAEHEDDLPENLSEIADLWNSPTRTHGTFGREPAAVKPDDDRYLRAAIQEYDNIAKLGQIIREGPIKLIQTELDEEPGDHSPGQGSLRFRHKPPVELKGPDGIHVVHGSTGTLLATDLNSLPEEDQKGLGRSLETLTAAEATAFERNARTESAKSTPLHKLRDVIMETPLEITEL
B2: GST-CDH23 + exon68 (cytoplasmic region of cadherin-23 including the exon68-encoded sequence, residues 847-1114) (domain or fragment)
chain: NWYYRTVHKRKLKAIVAGSAGNRGFIDIMDMPNTNKYSFDGANPVWLDPFCRNLELAAQAEHEDDLPENLSEIADLWNSPTRTHGTFGREPAAVKPDDDRYLRAAIQEYDNIAKLGQIIREGPIKGSLLKVVLEDYLRLKKLFAQRMVQKASSCHSSISELIQTELDEEPGDHSPGQGSLRFRHKPPVELKGPDGIHVVHGSTGTLLATDLNSLPEEDQKGLGRSLETLTAAEATAFERNARTESAKSTPLHKLRDVIMETPLEITEL
B3: GST-CDH23 + exon68ΔITEL (residues 847-1110) (domain or fragment)
chain: NWYYRTVHKRKLKAIVAGSAGNRGFIDIMDMPNTNKYSFDGANPVWLDPFCRNLELAAQAEHEDDLPENLSEIADLWNSPTRTHGTFGREPAAVKPDDDRYLRAAIQEYDNIAKLGQIIREGPIKGSLLKVVLEDYLRLKKLFAQRMVQKASSCHSSISELIQTELDEEPGDHSPGQGSLRFRHKPPVELKGPDGIHVVHGSTGTLLATDLNSLPEEDQKGLGRSLETLTAAEATAFERNARTESAKSTPLHKLRDVIMETPLE

Assays:
Test in all cases: SPR
[1] = molecular target: T1, harmonin-a Nter-PDZ1-PDZ2 fragment …
[2] = molecular target: T2, harmonin-a Nter-PDZ1 fragment (residues …)
[3] = molecular target: T3, harmonin-a Nter domain (residues 1-79)
[4] = molecular target: B1
[5] = molecular target: GST-CDH23Δexon68ΔITEL (residues 847-1075)
[6] = molecular target: B2
[7] = molecular target: B3

| Kd [1] | Kd [2] | Kd [3] | Kd [4] | Kd [5] | Kd [6] | Kd [7] | Binder |
| --- | --- | --- | --- | --- | --- | --- | --- |
| 42 ± 11 nM | 79 ± 10 nM | > 5 µM | – | – | – | – | B1 |
| – | – | – | 79 ± 11 nM | 48 ± 6 nM | 97 ± 14 nM | 127 ± 12 nM | full-length harmonin-a (natural protein) MDRKVAREFRHKVDFLIENDAEKDYLYDVLRMYHQTMDVAVLVGDLKLVINEPNRLPLFDAIRPLIPLKHQVEYDQLTPRRSRKLKEVRLDRLHPEGLGLSVRGGLEFGCGLFISHLIKGGQADSVGLQVGDEIVRINGYSISSCTHEEVINLIRTKKTVSIKVRHIGLIPVKSSPEESLKWQYVDQFVSESGGVRGGLGSPGNRTTKEKKVFISLVGSRGLGCSISSGPIQKPGIFVSHVKPGSLSAEVGLETGDQIVEVNGIDFTNLDHKEAVNVLKSSRSLTISIVAGAGRELFMTDRERLEEARQRELQRQELLMQKRLAMESNKILQEQQEMERQRRKEIAQKAAEENERYRKEMEQISEEEEKFKKQWEEDWGSKEQLILPKTITAEVHPVPLRKPKYDQGVEPADHLDGSTEEQRQQDFRKYEEGFDPYSMFSPEQIAGKDVRLLRIKKEGSLDLALEGGVDSPVGKVVVSAVYEGGAAERHGGVVKGDEIMAINGKIVTDYTLAEAEAALQKAWNQGGDWIDLVVAVCPPKEYDDEL |
| 64 ± 6 nM | 94 ± 8 nM | > 5 µM | – | – | – | – | B2 |
| 66 ± 13 nM | 106 ± 5 nM | > 5 µM | – | – | – | – | B3 |
